Like-named read-outs stand apart in the source and are kept apart here.
B2: AtHsp18.5 tryptic fragment 11–153 (domain or fragment, Arabidopsis thaliana, UniProt O64564 11-153, looked up)
chain: RLSPGDRIWEPFELMNTFLDFPSPALFLSHHFPSLSREIFPQTSSSTVNTQLNWTETPTAHVFKAYLPGVDQDEVIAFVDEEGYLQICTGDNKFMSRFKLPNNALTDQVTAWMEDEFLVVFVEKDASSSPPQLPEIEENRNVR
B7: AtHsp18.5 tryptic fragment 11–150 (domain or fragment, Arabidopsis thaliana, UniProt O64564 11-150, looked up)
chain: RLSPGDRIWEPFELMNTFLDFPSPALFLSHHFPSLSREIFPQTSSSTVNTQLNWTETPTAHVFKAYLPGVDQDEVIAFVDEEGYLQICTGDNKFMSRFKLPNNALTDQVTAWMEDEFLVVFVEKDASSSPPQLPEIEENR
B8: AtHsp18.5 tryptic fragment 12–153 (domain or fragment, Arabidopsis thaliana, UniProt O64564 12-153, looked up)
chain: LSPGDRIWEPFELMNTFLDFPSPALFLSHHFPSLSREIFPQTSSSTVNTQLNWTETPTAHVFKAYLPGVDQDEVIAFVDEEGYLQICTGDNKFMSRFKLPNNALTDQVTAWMEDEFLVVFVEKDASSSPPQLPEIEENRNVR

How the values were obtained:
[1] = target: T1, porcine mitochondrial malate dehydrogenase (porcine, UniProt P00346 25-338); experiment: SEC
T1 sequence (looked up): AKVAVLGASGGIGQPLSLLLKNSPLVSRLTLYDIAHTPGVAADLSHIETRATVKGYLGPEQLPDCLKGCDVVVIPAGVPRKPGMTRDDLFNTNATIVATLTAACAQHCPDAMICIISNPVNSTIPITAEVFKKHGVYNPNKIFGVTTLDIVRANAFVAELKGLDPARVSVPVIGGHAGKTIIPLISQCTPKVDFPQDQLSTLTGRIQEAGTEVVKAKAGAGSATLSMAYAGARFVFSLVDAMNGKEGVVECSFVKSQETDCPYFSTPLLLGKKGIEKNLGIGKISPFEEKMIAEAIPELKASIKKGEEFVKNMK

[2] = target: firefly luciferase (firefly, UniProt P08659 1-550 = luciferase); experiment: SEC
Chain of firefly luciferase (P08659 whole entry): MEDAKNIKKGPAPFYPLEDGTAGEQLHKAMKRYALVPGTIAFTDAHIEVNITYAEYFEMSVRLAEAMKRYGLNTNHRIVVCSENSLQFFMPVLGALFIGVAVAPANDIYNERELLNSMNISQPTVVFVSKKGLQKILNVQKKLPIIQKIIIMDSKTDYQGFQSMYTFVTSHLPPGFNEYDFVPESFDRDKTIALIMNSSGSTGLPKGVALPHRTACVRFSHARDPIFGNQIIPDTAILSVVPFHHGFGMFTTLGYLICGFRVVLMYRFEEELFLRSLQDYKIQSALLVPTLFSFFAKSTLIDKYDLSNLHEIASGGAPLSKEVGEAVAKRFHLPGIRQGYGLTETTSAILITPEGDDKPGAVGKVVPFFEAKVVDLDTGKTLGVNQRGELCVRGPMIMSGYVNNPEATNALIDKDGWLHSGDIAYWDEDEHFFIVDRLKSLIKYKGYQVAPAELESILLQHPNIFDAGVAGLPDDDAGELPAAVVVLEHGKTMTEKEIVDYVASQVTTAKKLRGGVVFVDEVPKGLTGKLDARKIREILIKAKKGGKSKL

[3] = target: the molecule itself; experiment: native MS
[4] = target: the molecule itself; experiment: native MS; remark: listed apart in the source
[5] = target: the molecule itself; experiment: native gel or EMSA
[6] = target: the molecule itself; experiment: native gel or EMSA + cross-linking + native MS + AUC
[7] = target: B7; experiment: native MS
[8] = target: B8; experiment: native MS
[9] = target: B2; experiment: native MS

B1: PsHsp18.1, cytosolic class I sHSP from Pisum sativum (natural protein, UniProt P19243 1-158, looked up)
chain: MSLIPSFFSGRRSNVFDPFSLDVWDPLKDFPFSNSSPSASFPRENPAFVSTRVDWKETPEAHVFKADLPGLKKEEVKVEVEDDRVLQISGERSVEKEDKNDEWHRVERSSGKFLRRFRLPENAKMDKVKASMENGVLTVTVPKEEIKKAEVKSIEISG
B1: binds [1]; binds [2].

B2: binds [3].

B3: AtHsp18.5 truncation mutant 25–153 (domain or fragment, Arabidopsis thaliana, UniProt O64564 25-153, looked up)
chain: MNTFLDFPSPALFLSHHFPSLSREIFPQTSSSTVNTQLNWTETPTAHVFKAYLPGVDQDEVIAFVDEEGYLQICTGDNKFMSRFKLPNNALTDQVTAWMEDEFLVVFVEKDASSSPPQLPEIEENRNVR
B3: binds [4].

B4: AtHsp18.5 with N-terminal Strep II tag (natural protein, Arabidopsis thaliana, UniProt O64564 1-162, looked up)
chain: MSMIPISNRRRLSPGDRIWEPFELMNTFLDFPSPALFLSHHFPSLSREIFPQTSSSTVNTQLNWTETPTAHVFKAYLPGVDQDEVIAFVDEEGYLQICTGDNKFMSRFKLPNNALTDQVTAWMEDEFLVVFVEKDASSSPPQLPEIEENRNVRVVEITGDDD
For B4, the “stoichiometry N” value [5] was 2.

B5: AtHsp18.5 with C-terminal Strep II tag (natural protein, Arabidopsis thaliana, UniProt O64564 1-162, looked up)
chain: MSMIPISNRRRLSPGDRIWEPFELMNTFLDFPSPALFLSHHFPSLSREIFPQTSSSTVNTQLNWTETPTAHVFKAYLPGVDQDEVIAFVDEEGYLQICTGDNKFMSRFKLPNNALTDQVTAWMEDEFLVVFVEKDASSSPPQLPEIEENRNVRVVEITGDDD
B5 was tested, and the “stoichiometry N” value [5] was 2.

B6: AtHsp18.5 with Cys98 substituted by Ala (natural protein, Arabidopsis thaliana, UniProt O64564 1-162, looked up)
chain: MSMIPISNRRRLSPGDRIWEPFELMNTFLDFPSPALFLSHHFPSLSREIFPQTSSSTVNTQLNWTETPTAHVFKAYLPGVDQDEVIAFVDEEGYLQIATGDNKFMSRFKLPNNALTDQVTAWMEDEFLVVFVEKDASSSPPQLPEIEENRNVRVVEITGDDD
For B6, the “stoichiometry N” value [6] was 2.

B7: binds [3].

B8: binds [3].

B9: AtHsp18.5 tryptic fragment 48–153 (domain or fragment, Arabidopsis thaliana, UniProt O64564 48-153, looked up)
chain: EIFPQTSSSTVNTQLNWTETPTAHVFKAYLPGVDQDEVIAFVDEEGYLQICTGDNKFMSRFKLPNNALTDQVTAWMEDEFLVVFVEKDASSSPPQLPEIEENRNVR
B9: binds [7]; binds [8]; binds [9].
